Measurements reported in paper PMC6738421, “Beta-amyloid induces apoptosis of neuronal cells by inhibition of the Arg/N-end rule pathway proteolytic activity” (Aging (Albany NY), 2019).

Molecular target: T1, Beta-amyloid peptide Aβ42
T1 construct: beta-amyloid peptide 1-42, a stretch of the amyloid precursor protein; free N-terminus [H2N] and C-terminus [COOH] as printed; Monomerised with HFIP and dissolved in DMSO; for the ITC kinetics treated with 10% NH4OH, lyophilised and resuspended in reaction buffer; source: synthetic peptide, bought: Biopeptide
Assay: ELISA; sandwich ELISA: Aβ42 (1 μM) captured on immobilised anti-Aβ1-17 antibody, Ate1 added for 90 min at 37°C (30 mM KCl, 5 mM MgCl2, 15 μM Arg, 1 mM ATP, 50 mM Hepes pH 7.5), read by loss of the anti-Aβ36-42 detection antibody signal (OD450); without tRNA
Details: both partners purified

Row | binding result | Binder
1 | binds | Arginyl-tRNA-protein transferase Ate1, isoform Ate1-1 (enzyme, mouse, UniProt Q9Z2A5-1 1-516, looked up, mouse arginyl-tRNA-protein transferase Ate1, isoform Ate1-1; untagged after cleavage; also called R-transferase Ate1; arginyltransferase Ate1; source: E. coli Rosetta(DE3)pLysS, purified (Ni-NTA, Ub moiety cleaved with Usp2-cc, second Ni-NTA)) MASWSAPSPSLVEYFEGQTSFQCGYCKNKLGSRSYGMWAHSMTVQDYQDLIDRGWRRSGKYVYKPVMDQTCCPQYTIRCHPLQFQPSKSHKKVLKKMLKFLAKGEISKGNCEDEPMDSTVEDAVDGDFALINKLDIKCDLKTLSDLKGSIESEEKEKEKSIKKEGSKEFIHPQSIEEKLGSGEPSHPIKVHIGPKPGKGADLSKPPCRKAREMRKERQRLKRMQQASAAASEAQGQPVCLLPKAKSNQPKSLEDLIFQSLPENASHKLEVRVVRSSPPSPQFRATFQESYQVYKRYQMVVHKDPPDKPTVSQFTRFLCSSPLEAEHPADGPECGYGSFHQQYWLDGKIIAVGVLDILPYCVSSVYLYYDPDYSFLSLGVYSALREIAFTRQLHEKTSQLSYYYMGFYIHSCPKMRYKGQYRPSDLLCPETYVWVPIEQCLPSLDNSKYCRFNQDPEAEDEGRSKELDRLRVFHRRSAMPYGVYKNHQEDPSEEAGVLEYANLVGQKCSERMLLFRH
2 | binds | Arginyl-tRNA-protein transferase Ate1, isoform Ate1-3 (enzyme, mouse, UniProt Q9Z2A5-3 1-509, looked up, untagged after cleavage; also called R-transferase Ate1; arginyltransferase Ate1; source: E. coli Rosetta(DE3)pLysS, purified (Ni-NTA, Ub moiety cleaved with Usp2-cc, second Ni-NTA)) MASVVEYKGLKAGYYCGYCESREGKTSCGMWAHSMTVQDYQDLIDRGWRRSGKYVYKPVMDQTCCPQYTIRCHPLQFQPSKSHKKVLKKMLKFLAKGEISKGNCEDEPMDSTVEDAVDGDFALINKLDIKCDLKTLSDLKGSIESEEKEKEKSIKKEGSKEFIHPQSIEEKLGSGEPSHPIKVHIGPKPGKGADLSKPPCRKAREMRKERQRLKRMQQASAAASEAQGQPVCLLPKAKSNQPKSLEDLIFQSLPENASHKLEVRVVRSSPPSPQFRATFQESYQVYKRYQMVVHKDPPDKPTVSQFTRFLCSSPLEAEHPADGPECGYGSFHQQYWLDGKIIAVGVLDILPYCVSSVYLYYDPDYSFLSLGVYSALREIAFTRQLHEKTSQLSYYYMGFYIHSCPKMRYKGQYRPSDLLCPETYVWVPIEQCLPSLDNSKYCRFNQDPEAEDEGRSKELDRLRVFHRRSAMPYGVYKNHQEDPSEEAGVLEYANLVGQKCSERMLLFRH
